Assay results taken from IntAct's records for PubMed 10433268.

B1: Disks large-associated protein 1 (Rattus norvegicus (Rat)), P97836-5 (parent)
chain: MIDLFKAEWVSSVCVQVSRNGRTDQVWVPQDEWTGYTPRGKDDEIPCRRMRSGSYIKAMGDEDSGDSDTSPKPSPKVAARRESYLKATQPSLTELTTLKISNEHSPKLQIRSHSYLRAVSEVSINRSLDSLDPAGLLTSPKFRSRNESYMRAMSTISQVSEMEVNGQFESVCESVFSELESQAVEALDLPMPGCFRMRSHSYVRAIEKGCSQDDECVSLRSSSPPRTTTTVRTIQSSTGVIKLSSAVEAQSSTESAQDAYMDGQGQRGDMISQSGLSNSTESLDSMKALTAAIEAANAQIHGPASQHMGSNAAAVTTTTTIATVTTEDRKKDFKKNRCLSIGIQVDDAEESEKMAESKTSSKFQSVGVQVEEEKCFRRFTRSNSVTTAVQADLDFHDNLENSLESIEDNSCPGPMARQFSRDASTSTVSIQGSGNHYHACAADDDFDTDFDPSILPPPDPWIDSITEDPLEAVQRSVCHRDGHWFLKLLQAERDRMEGWCKQMEREERENNLPEDILGKIRTAVGSAQLLMAQKFYQFRELCEENLNPNAHPRPTSQDLAGFWDMLQLSIENISMKFDELHQLKANNWKQMDPLDKKERRAPPPVPKKPAKGPAPLIRERSLESSQRQEARKRLMAAKRAASVRQNSATESAESIEIYIPEAQTRL

Variants of: B1
Conditions: with Shank1, Q9WV48-4
Chain of Shank1, Q9WV48-4 (Q9WV48 other isoform, or with tags, fused parts or gaps): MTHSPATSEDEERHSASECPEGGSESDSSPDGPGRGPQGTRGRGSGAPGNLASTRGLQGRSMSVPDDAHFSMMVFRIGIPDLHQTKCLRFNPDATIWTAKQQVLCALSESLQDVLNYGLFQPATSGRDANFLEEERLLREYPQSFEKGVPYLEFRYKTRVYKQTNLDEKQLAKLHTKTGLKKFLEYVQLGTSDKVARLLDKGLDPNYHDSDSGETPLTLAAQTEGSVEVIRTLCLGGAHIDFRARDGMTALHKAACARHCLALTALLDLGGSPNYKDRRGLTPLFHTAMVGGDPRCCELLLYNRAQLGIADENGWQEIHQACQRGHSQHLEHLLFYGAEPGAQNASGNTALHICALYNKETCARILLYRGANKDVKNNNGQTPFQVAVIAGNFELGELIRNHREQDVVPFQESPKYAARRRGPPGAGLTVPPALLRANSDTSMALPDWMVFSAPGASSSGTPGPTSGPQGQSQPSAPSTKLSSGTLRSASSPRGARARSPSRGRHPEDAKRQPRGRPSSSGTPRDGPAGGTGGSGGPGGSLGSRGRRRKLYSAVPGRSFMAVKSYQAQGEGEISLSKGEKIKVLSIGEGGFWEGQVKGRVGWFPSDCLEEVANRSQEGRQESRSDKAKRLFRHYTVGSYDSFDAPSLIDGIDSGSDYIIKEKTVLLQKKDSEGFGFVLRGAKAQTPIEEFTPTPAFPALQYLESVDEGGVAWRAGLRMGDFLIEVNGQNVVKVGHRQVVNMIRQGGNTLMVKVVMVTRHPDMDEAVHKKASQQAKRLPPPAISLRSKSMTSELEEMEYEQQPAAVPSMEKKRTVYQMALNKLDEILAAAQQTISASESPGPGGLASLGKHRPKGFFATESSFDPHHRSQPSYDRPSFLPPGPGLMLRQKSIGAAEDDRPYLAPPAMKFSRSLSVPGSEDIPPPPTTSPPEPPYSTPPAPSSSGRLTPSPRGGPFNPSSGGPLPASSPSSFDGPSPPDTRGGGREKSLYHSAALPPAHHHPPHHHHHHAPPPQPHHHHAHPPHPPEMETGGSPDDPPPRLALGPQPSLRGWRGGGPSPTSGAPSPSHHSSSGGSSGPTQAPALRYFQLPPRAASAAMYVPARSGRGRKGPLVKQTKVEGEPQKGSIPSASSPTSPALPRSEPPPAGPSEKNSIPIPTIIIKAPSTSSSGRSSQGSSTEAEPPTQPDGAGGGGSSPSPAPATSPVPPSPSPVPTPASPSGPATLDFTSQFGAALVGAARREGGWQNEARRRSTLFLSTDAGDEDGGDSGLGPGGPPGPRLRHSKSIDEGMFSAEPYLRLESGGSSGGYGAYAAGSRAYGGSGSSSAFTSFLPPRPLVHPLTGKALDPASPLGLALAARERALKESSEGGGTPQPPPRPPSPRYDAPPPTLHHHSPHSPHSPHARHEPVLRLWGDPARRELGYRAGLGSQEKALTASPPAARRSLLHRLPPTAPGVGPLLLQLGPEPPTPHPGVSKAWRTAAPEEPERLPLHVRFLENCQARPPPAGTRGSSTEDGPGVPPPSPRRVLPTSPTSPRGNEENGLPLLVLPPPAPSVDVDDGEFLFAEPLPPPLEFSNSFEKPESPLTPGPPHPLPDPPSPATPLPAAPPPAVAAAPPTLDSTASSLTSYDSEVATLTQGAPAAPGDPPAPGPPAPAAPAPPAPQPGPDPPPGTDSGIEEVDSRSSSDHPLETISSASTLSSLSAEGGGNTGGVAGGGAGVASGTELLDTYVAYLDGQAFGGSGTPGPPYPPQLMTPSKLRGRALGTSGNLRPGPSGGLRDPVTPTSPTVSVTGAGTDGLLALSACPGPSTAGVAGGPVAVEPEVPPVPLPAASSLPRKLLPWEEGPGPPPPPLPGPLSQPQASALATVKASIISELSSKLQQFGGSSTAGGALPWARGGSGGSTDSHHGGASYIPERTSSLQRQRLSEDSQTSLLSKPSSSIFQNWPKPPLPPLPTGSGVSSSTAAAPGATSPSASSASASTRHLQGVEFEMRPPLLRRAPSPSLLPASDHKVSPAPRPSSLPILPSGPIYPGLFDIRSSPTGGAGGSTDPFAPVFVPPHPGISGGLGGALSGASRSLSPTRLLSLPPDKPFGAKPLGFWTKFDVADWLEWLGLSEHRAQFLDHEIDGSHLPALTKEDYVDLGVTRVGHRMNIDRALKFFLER

effect of a mutation on the interaction | Variant
decreasing interaction | L666V
disrupting interaction | T664A

More lines, now with the values behind:

Variant | effect of a mutation on the interaction
L666A | disrupting interaction
T664S | decreasing interaction
R665D | decreasing interaction
